Consider 1 variant from IntAct's records for PubMed 22317921.

Sequences and labels used below:
B1: Zinc transporter SLC39A7 (Homo sapiens), Q92504 (parent)
chain: MARGLGAPHWVAVGLLTWATLGLLVAGLGGHDDLHDDLQEDFHGHSHRHSHEDFHHGHSHAHGHGHTHESIWHGHTHDHDHGHSHEDLHHGHSHGYSHESLYHRGHGHDHEHSHGGYGESGAPGIKQDLDAVTLWAYALGATVLISAAPFFVLFLIPVESNSPRHRSLLQILLSFASGGLLGDAFLHLIPHALEPHSHHTLEQPGHGHSHSGQGPILSVGLWVLSGIVAFLVVEKFVRHVKGGHGHSHGHGHAHSHTRGSHGHGRQERSTKEKQSSEEEEKETRGVQKRRGGSTVPKDGPVRPQNAEEEKRGLDLRVSGYLNLAADLAHNFTDGLAIGASFRGGRGLGILTTMTVLLHEVPHEVGDFAILVQSGCSKKQAMRLQLLTAVGALAGTACALLTEGGAVGSEIAGGAGPGWVLPFTAGGFIYVATVSVLPELLREASPLQSLLEVLGLLGGVIMMVLIAHLE

The variants in the test derive from B1. The note with it: with csk21_human CSNK2A1, P68400.
Sequence of csk21_human CSNK2A1, P68400 (P68400 whole entry, looked up): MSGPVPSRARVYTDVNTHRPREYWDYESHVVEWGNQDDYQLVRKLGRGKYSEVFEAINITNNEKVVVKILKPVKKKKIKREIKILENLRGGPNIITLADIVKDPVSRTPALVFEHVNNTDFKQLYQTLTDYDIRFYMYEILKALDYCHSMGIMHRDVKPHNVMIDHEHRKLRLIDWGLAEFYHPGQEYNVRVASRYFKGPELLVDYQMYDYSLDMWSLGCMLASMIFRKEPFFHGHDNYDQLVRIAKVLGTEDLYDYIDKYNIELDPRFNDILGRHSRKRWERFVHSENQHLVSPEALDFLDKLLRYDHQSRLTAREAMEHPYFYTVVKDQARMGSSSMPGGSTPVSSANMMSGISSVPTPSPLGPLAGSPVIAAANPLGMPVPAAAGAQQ
MARGLGAPHWVAVGLLTWATLGLLVAGLGGHDDLHDDLQEDFHGHSHRHSHEDFHHGHSHAHGHGHTHESIWHGHTHDHDHGHSHEDLHHGHSHGYSHESLYHRGHGHDHEHSHGGYGESGAPGIKQDLDAVTLWAYALGATVLISAAPFFVLFLIPVESNSPRHRSLLQILLSFASGGLLGDAFLHLIPHALEPHSHHTLEQPGHGHSHSGQGPILSVGLWVLSGIVAFLVVEKFVRHVKGGHGHSHGHGHAHSHTRGSHGHGRQERSTKEKQAAEEEEKETRGVQKRRGGSTVPKDGPVRPQNAEEEKRGLDLRVSGYLNLAADLAHNFTDGLAIGASFRGGRGLGILTTMTVLLHEVPHEVGDFAILVQSGCSKKQAMRLQLLTAVGALAGTACALLTEGGAVGSEIAGGAGPGWVLPFTAGGFIYVATVSVLPELLREASPLQSLLEVLGLLGGVIMMVLIAHLE [S275A;S276A]: the “effect of a mutation on the interaction” value is “decreasing interaction”.
